This note sets out measurements from publication PMC3617137 (2013).

As a reminder, the Kd is the free concentration of one partner at which half of the binding sites on the other are occupied at equilibrium, for simple one-to-one binding. Read a high Kd as a looser complex.

This test addresses T1, microtubules (alpha/beta-tubulin) (Sus scrofa, UniProt P02550).
T1 chain 1: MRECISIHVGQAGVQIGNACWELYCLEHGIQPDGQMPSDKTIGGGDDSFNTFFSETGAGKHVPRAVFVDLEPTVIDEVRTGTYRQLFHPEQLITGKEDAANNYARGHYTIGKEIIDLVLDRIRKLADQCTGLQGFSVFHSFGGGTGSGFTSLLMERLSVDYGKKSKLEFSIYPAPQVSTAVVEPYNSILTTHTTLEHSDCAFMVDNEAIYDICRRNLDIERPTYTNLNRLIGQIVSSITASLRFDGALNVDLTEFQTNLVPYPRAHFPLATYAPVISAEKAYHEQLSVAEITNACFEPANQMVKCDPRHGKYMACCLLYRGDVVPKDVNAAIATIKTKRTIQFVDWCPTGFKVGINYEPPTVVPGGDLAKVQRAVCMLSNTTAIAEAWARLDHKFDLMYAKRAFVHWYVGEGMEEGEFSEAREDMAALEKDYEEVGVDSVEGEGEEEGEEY
T1 chain 2: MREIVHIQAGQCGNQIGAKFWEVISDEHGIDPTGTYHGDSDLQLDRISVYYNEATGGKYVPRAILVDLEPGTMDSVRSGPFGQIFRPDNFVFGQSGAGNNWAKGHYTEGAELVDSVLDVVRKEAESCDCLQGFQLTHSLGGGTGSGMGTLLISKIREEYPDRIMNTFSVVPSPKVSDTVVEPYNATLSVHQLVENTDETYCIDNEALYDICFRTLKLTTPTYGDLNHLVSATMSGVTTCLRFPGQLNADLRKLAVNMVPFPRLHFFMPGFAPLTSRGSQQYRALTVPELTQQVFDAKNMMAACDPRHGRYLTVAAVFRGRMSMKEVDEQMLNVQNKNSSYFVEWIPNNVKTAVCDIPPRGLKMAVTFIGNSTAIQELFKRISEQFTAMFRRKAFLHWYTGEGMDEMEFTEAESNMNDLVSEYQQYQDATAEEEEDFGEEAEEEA
The experiment in a line: microtubule co-sedimentation.

B1: Mars (MBP-N-Mars) 1-430 (protein)
chain: MQRHKELYKEQSLVLSPRNHCQENRDRLQAARAKKREDCFYQNRIISVSPTPVKIKQLAAAQAALTQENVAPKLESPERLDTKPAELLKESNPKVSRQKLYLQRYMEWKIAKTKEHKQQDQKRRGAAINVPTVKQSKALPKSQTFRVPDNLASAKQKEAAPMFQPPKRCSLYMIANPTGKGKAAEPIKPSIPKPTSAAAPPSSNTVAASSALARHKSAASATKIVPAIRQNNNPVALARQKAAARPIPNTTKQTTSVRQPGIEAKKITTTIPRPTPATVTKAKTPGIRQQPPVVSTKPRLPEPPAPRTARLPNVLSKPFEKPLGNKAPVTRRANVVKPQPIRGGGGAAAKFKDTAGATSKAASHSIRMKATKIKSQYTRLQDNVRKLPQLKAELLHAATLDIPPLTPLDDIHNPFIDQATSTQCKSNNSS
modifications: MBP fusion, taxol-stabilized GMPPNP/GDP-NP microtubules
The molecule B1 registered a Kd of 250 nM.
